Data published in the supplement of paper PMC10567573.
± gives the standard deviation.

Experiment: protein stability index of a GFP-peptide fusion (GPS, HEK-293T) (PSI 1-6); higher = more stable
[1] = treatment: DMSO, c terminus: a fixed tail appended
[2] = treatment: MLN4924 1 uM, 8 h, c terminus: a fixed tail appended
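Also: 24-mer peptide tiles fused after GFP, lentivirally expressed, FACS-sorted into six equal bins by GFP/DsRed ratio, decoded by Illumina sequencing, PSI is the read-weighted mean bin number.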

Sequence	protein stability index [1]	protein stability index [2]	protein stability index (treatment: DMSO, c terminus: native)	protein stability index (treatment: MLN4924 1 uM, 8 h, c terminus: native)
SSAVSGVKEWFGLGGEQAEEKAFE [MIA2]	5.09 ± 0.43	5.04 ± 0.19		
LPEPSKRGPPHGWPKLCPCLRSGI [MYCL]	2.04 ± 0.64	2.85 ± 0.054		
ANAFQQEAQTSGKERLLLSAAVPA [CHIT1]	4.03 ± 0.33	4.18 ± 0.28		
YTGMFTSSPDLDDMKLIILANRLC [RHOBTB2]	2.73 ± 0.51	2.7 ± 0.51		
AQPNYIPTQQDVLRTRVKTTGIVE [GNAI1]	4.19 ± 0.23	4.27 ± 0.36		
HGSGSHPGPASGPGPDTGPDSELS [SPAG8]	5.41 ± 0.25	5.37 ± 0.36		
EGEPATQRQDPAAAQEGEDEGASA [GAGE1]	5.55 ± 0.11	5.56 ± 0.26		
SKRKAETWKKNRRQLAYSTVGTPD [STK38L]	4.02 ± 0.41	4.33 ± 0.5		
ISKGEEPRAGKEESGVSVSNSQPT [SLC29A1]	5.48 ± 0.24	5.52 ± 0.22		
SAAYYLNDLDRIAQPNYIPTQQDV [GNAI1]	3.7 ± 0.28	3.73 ± 0.24		
KLVRSPSGLRMVPEHRAFGSPFGL [ZFYVE21]	2.32 ± 0.076	2.28 ± 0.22		
DLDSCSRDGALLGCSLTADGLPLH [MYORG]	3.32 ± 0.28	3.51 ± 0.3		
LLEQGAQVNRRSAKGNTALHDCAE [FEM1A]	4.81 ± 0.22	4.9 ± 0.23		
YRKKSAEFPDFYDSEEPVSTHQEA [CHGB]	4.97 ± 0.12	5.01 ± 0.32		
YGHPAGIDYKTTTILLDGRRVKLQ [RAB40B]	2.87 ± 0.28	3.14 ± 0.11		
MYEEEINETRRKHETRLVEVDSGR [LMNB1]	5.04 ± 0.44	5.06 ± 0.099		
KLEEVVNKKHGEAEKKKPKTQIVC [ZC3H15]	4.64 ± 0.18	4.63 ± 0.24		
GLLAGVGYFAFMLFRKRLGSMILA [GDAP1]	1.99 ± 0.082	2.37 ± 0.41		
KKTMSTFHNLVSLNLNYNCISDEL [FBXO39]	2.09 ± 0.21	2.18 ± 0.22		
IGMSAAGMGLTGTMGMGMPNIAMT [CLINT1]	2.62 ± 0.079	2.56 ± 0.13		
VVKRREGPAGHSKGELAPELGEEP [POLD4]	5.46 ± 0.087	5.14 ± 0.36		
FSALYWFNYELVKSWLNGFRPKDQ [SLC25A39]	2.2 ± 0.39	2.61 ± 0.92		
MEDSFLQSFGRLSLQPQQQQQRQR [N4BP2L1]	4.69 ± 0.3	4.63 ± 0.25		

Sequence	protein stability index [1]	protein stability index [2]	protein stability index (treatment: DMSO, c terminus: native)	protein stability index (treatment: MLN4924 1 uM, 8 h, c terminus: native)
AFVSNSPKLFCPKNRSFDIDAIYS [PLD5]	2.15 ± 0.8	2.51 ± 0.69		
KLILGMPTYGRSFTLASSSDTRVG [CHIT1]	2.42 ± 0.36	2.46 ± 0.22		
LQLNARSFMMGQGGEAAHHTRSPY [NEUROD6]	2.99 ± 0.22	3.37 ± 0.32		
MCKADLSRNFIERNHMENGGDHRY [TRIM29]	3.41 ± 0.25	3.33 ± 0.26		
SGRRGPPPPPRSRGPPRGLRGGRG [RBMX]	4.87 ± 0.25	5.14 ± 0.3		
DEEDCPNPEEYNLDEPNAESDYTY [SRPK2]	5.57 ± 0.37	5.66 ± 0.15		
QMAEKNRRDAETWFLSKTEELNKE [KRT16]	5.02 ± 0.57	4.81 ± 0.35		
ELIRNIYNSFHKLRDRAERIASRA [SNX8]	2.22 ± 0.75	2.17 ± 0.27		
ESACSSDSLDEARSSGSEGTPADT [PWWP2B]	5.7 ± 0.11	5.5 ± 0.21		
PDSMFLAMLAVVSCASIGSGEPPT [CDK11A]	2.74 ± 0.15	3.222 ± 0.003		
RAFAQIGPARSGFRLETLAGLRSR [MIR22HG]	3.23 ± 0.53	3.2 ± 0.3		
AREVKLLLLGAGESGKSTIVKQMK [GNAI1]	2.73 ± 0.25	2.62 ± 0.26		
IHQESGKAPSTDDATWAAVAACTK [C10orf62]	4.56 ± 0.18	4.72 ± 0.32		
ASEYCPGKLSWGTMARALGRFKLS [WDR88]	2.49 ± 0.42	2.67 ± 0.29		
TPEEVIWEALNMMGLYDGMEHLIY [MAGEA10]	2.49 ± 0.37	2.03 ± 0.055		
IHGENIICEATQIIDYLEQTFLDE [GDAP1]	2.82 ± 0.22	3.12 ± 0.21		
RLEINVLKKIKEKDKENKFLCVLM [CLK3]	2.57 ± 0.52	2.1 ± 0.082		
CHICHKKLYTGPGLAIHCMQVHKE [ZNF207]	3.07 ± 0.27	3.25 ± 0.39		
KKEKIIEDKTFGLKNKKGAKQQKF [ZC3H15]	4.5 ± 0.27	4.33 ± 0.19		
ILFLNKKDLFEEKIKKSPLTICYP [GNAI1]	2.43 ± 0.9	2.21 ± 0.75		
LHASTVKRYGLGAHRGRLNIQAGI [CPXM2]	2.52 ± 0.12	2.51 ± 0.2		
TFKSFEDRVGTIKSKVVGDRENGS [TPD52L2]	4.65 ± 0.062	4.7 ± 0.29		
AKMLLHEGQHPAQLRSDVCTPGGT [PYCR3]	4.29 ± 0.5	4.58 ± 0.9		

Sequence	protein stability index [1]	protein stability index [2]	protein stability index (treatment: DMSO, c terminus: native)	protein stability index (treatment: MLN4924 1 uM, 8 h, c terminus: native)
THLEGDTVQIICNTGYRLQNNENN [CFHR2]	3.79 ± 0.22	3.87 ± 0.14		
FSDDCDLPSAQDINRLVGLQNTYM [GLT8D2]	3.68 ± 0.26	3.66 ± 0.11		
DEMLSYLPGGTTGLQLPSTLPVSG [TFE3]	3.95 ± 0.26	4.15 ± 0.21		
KPYIAAHFDVLPTEFTLGDDKHYG [PTPRD]	3.28 ± 0.49	3.44 ± 0.14		
GSKSQRYSGAYGASVSDEELKRRV [CHCHD3]	4.99 ± 0.29	4.86 ± 0.18		
KHGKRKRGRPRKLSKEYWDCLEGK [ELF3]	4.18 ± 0.44	4.38 ± 0.18		
VPRPGIPPMTQAQAVSAPGILNRP [ZNF207]	4.55 ± 0.063	4.45 ± 0.086		
KQLEPLVAPLADGKVAVGQDDLTV [VPS39]	5.14 ± 0.27	5.18 ± 0.21		
AAAEFSSLLRRIKGKLFTWNILKT [SLC35F2]	3.05 ± 0.56	2.94 ± 0.28		
SFSTGAGGWSNHHFCVILLGFLP [BET1L]			2.99 ± 0.39	2.99 ± 0.53
LANLRGLSEEERSEKAMLRSRIEE [CCDC89]	4.67 ± 0.22	4.68 ± 0.12		
SEDSFCRRHPGLGKAFPSGCSAVS [TRAF3IP2]	3.66 ± 0.24	3.46 ± 0.33		
PISAIRHEGKTDSERTDTAADGET [EPB41L3]	5.71 ± 0.19	5.74 ± 0.078		
DLEVDMNKTEVTPRLWTTCRDGEV [ACSBG2]	3.96 ± 0.15	3.95 ± 0.064		
LEEKRLTWRLPDVSEAGGSGRLSA [FCHO1]	4.37 ± 0.25	4.25 ± 0.044		
REVALLRRLEAFEHPNVVRLMDVC [CDK4]	2.52 ± 0.15	2.68 ± 0.2		
GDWARLLEQMGALAVRGSRREREL [ZBED3]	3.13 ± 0.51	2.89 ± 0.3		
QQREKLSLIRKHAQTFIALCATDF [CCND2]	2.25 ± 0.22	2.44 ± 0.13		
GIFPLSFVKILKDFPEEDDPTNWL [NCF4]	2.6 ± 0.28	2.82 ± 0.33		
GLQPVVFVLFLFAYLVTVRGNLSI [OR3A1]	2.6 ± 0.47	2.19 ± 0.21		
LKSLDKEISEAFTSTGFDRHTSPV [BCL2L13]	3.98 ± 0.36	4.12 ± 0.44		
FDIARIERCNQLLRALKLVITALK [ZER1]	2.33 ± 0.6	2.41 ± 0.37		
LIETYTGLMSFIGNRNKLGYSLAR [TPRG1]	2.31 ± 0.31	2.21 ± 0.16		

Sequence	protein stability index [1]	protein stability index [2]	protein stability index (treatment: DMSO, c terminus: native)	protein stability index (treatment: MLN4924 1 uM, 8 h, c terminus: native)
VLQERVRIFAHKIYLSTSSSKFYD [RHOBTB2]	2.6 ± 0.54	2.33 ± 0.46		
RQILHLITMMALKVLGELNILPNT [TENT5D]	3.42 ± 0.64	2.81 ± 0.1		
IPPAAMLDQAPKARKYFERLPGGG [DYRK1B]	3.72 ± 0.27	3.64 ± 0.061		
GGSKYLIYRRYRQFHALQSKLEER [NCF4]	2.45 ± 0.35	2.45 ± 0.33		
GTTLVVGLLAGVGYFAFMLFRKRL [GDAP1]	2.41 ± 0.49	2.63 ± 0.22		
MSPESYLGSPQHSPSTRGSPNRSL [ATF4]	4.64 ± 0.19	4.91 ± 0.3		
HPFFDTAEPDMDDPAYIAVLVLIF [INTS4]	2.61 ± 0.57	2.66 ± 0.62		
MLSWILRINLVAAIFSAPAFPAAV [PSD2]	3.23 ± 0.19	2.89 ± 0.39		
FLGSTEVEQPKGTEVVRDAVRKLK [GULP1]	4.62 ± 0.24	4.62 ± 0.16		
LPSDGDHQVPTTAGNKAALLDQIR [WASL]	4.73 ± 0.24	4.1 ± 0.84		
GGMLNFMMHDQRTGPAWNVLMWTM [SOAT2]	2.49 ± 1.2	2.07 ± 0.73		
DGAEIAEKFVFFIGSKNGGKTTII [DYNC2LI1]	2.26 ± 0.78	2.05 ± 0.54		
KNGEWGTVCDDKWDLVSASVVCRE [LOXL2]	3.85 ± 0.63	3.8 ± 0.73		
EQKAAGSASAKRVWNMTATRPKKM [FATE1]	4.43 ± 0.16	4.39 ± 0.22		
ELAYMKKNHEEEMKEFSNQVVGQV [KRT13]	4.7 ± 0.26	4.66 ± 0.14		
YQLFEELGKGAFSVVRRCVKVLAG [CAMK2A]	2.9 ± 0.64	2.64 ± 0.39		
AGKALVISGREVFEFRPELVNDDD [ZC3H15]	4.21 ± 0.57	4.23 ± 0.35		
TKPQNLNDAYGPPSNFLEIDVSNP [SNX3]	4.46 ± 0.42	4.29 ± 0.47		
DDDDEEEEVSEVESFILDQDDLEN [ANKRD17]	5.765 ± 0.056	5.68 ± 0.13		
FFAFLHCWLNAFAEMLRFGDRMFY [SOAT2]	3.14 ± 0.56	3.44 ± 0.23		
